Publication PMC5300038

Biological target: 14-3-3ε (UniProt P62258)
Assay: anti-Flag IP, anti-14-3-3ε Western blot
Settings: reference: wild type; sites S274,S299

With PITPNC1 (from UniProt Q9UKF7) S274/299A the “binding against the reference” value was “weaker”.
